The source of these data is publication PMC3836730, “Molecular Cloning and Characterization of Taurocyamine Kinase from Clonorchis sinensis: A Candidate Chemotherapeutic Target” (PLoS Neglected Tropical Diseases, 2013).

What all share (experiment): purified protein
What all share (type): biochemical, Clonorchis sinensis

One data set relates to N=C(N)NCCS(=O)(=O)O. The conditions noted are these: co-substrate ATP, Mg-acetate, Tris-HCl pH 8, 25°C.
Substrate in data set [1]: N=C(N)NCCS(=O)(=O)O
The conditions noted are these: co-substrate ATP, Mg-acetate, Tris-HCl pH 8, 25°C. The source holds these as a separate data set.

Substrate in data set [2]: Nc1ncnc2c1ncn2[C@@H]1O[C@H](COP(=O)(O)OP(=O)(O)OP(=O)(O)O)[C@@H](O)[C@H]1O
The conditions noted are these: co-substrate taurocyamine, Mg-acetate, Tris-HCl pH 8, 25°C.

“C. sinensis TK D2 (CsTK D2) (Clonorchis sinensis; H421A)”: in the data set on N=C(N)NCCS(=O)(=O)O, the Michaelis constant (Km) is 360 ± 70 µM, the kcat was determined as 5.92 ± 1.23 s⁻¹ and the catalytic efficiency (kcat/Km) turned out to be 15600 M⁻¹ s⁻¹.

Regarding “C. sinensis TK D1 (CsTK D1) (Clonorchis sinensis; I60A)”, in the data set with N=C(N)NCCS(=O)(=O)O, the Km was 510 ± 70 µM, the kcat worked out at 22.43 ± 0.38 s⁻¹ and the catalytic efficiency (kcat/Km) is 44000 M⁻¹ s⁻¹.

As for “C. sinensis TK D2 (CsTK D2) (Clonorchis sinensis; Y447A)”, in the data set with N=C(N)NCCS(=O)(=O)O, the Michaelis-Menten constant (Km) amounted to 3640 ± 210 µM, the kcat came out at 6.45 s⁻¹ and the catalytic efficiency (kcat/Km) was 1770 M⁻¹ s⁻¹.

As to “C. sinensis TK D1 (CsTK D1) (Clonorchis sinensis; R58A)”, in the data set on N=C(N)NCCS(=O)(=O)O, the Km is 850 ± 60 µM, the catalytic constant (kcat) came to 33.03 ± 1.14 s⁻¹ and the kcat/Km came to 38900 M⁻¹ s⁻¹.

Regarding “C. sinensis TK D2 (CsTK D2) (Clonorchis sinensis; Y447R)”, in the data set with N=C(N)NCCS(=O)(=O)O, the Michaelis-Menten constant (Km) was 3010 ± 250 µM, the kcat was found to be 0.99 ± 0.52 s⁻¹ and the kcat/Km worked out at 330 M⁻¹ s⁻¹.

On to “C. sinensis TK whole (CsTK D1D2) (Clonorchis sinensis; R58A)”, for which, in the data set with N=C(N)NCCS(=O)(=O)O, the Michaelis-Menten constant (Km) is 450 ± 190 µM, the kcat amounted to 15.00 ± 0.25 s⁻¹ and the specificity constant (kcat/Km) is 33300 M⁻¹ s⁻¹.

Consider “C. sinensis TK D2 (CsTK D2) (Clonorchis sinensis; I423A)”, for which, in the data set on N=C(N)NCCS(=O)(=O)O, the Michaelis constant (Km) turned out to be 300 ± 50 µM, the catalytic constant (kcat) stood at 6.46 ± 0.45 s⁻¹ and the kcat/Km amounted to 21500 M⁻¹ s⁻¹.

For the molecule “C. sinensis TK D1 (CsTK D1) (Clonorchis sinensis; Y84A)”, in the data set with N=C(N)NCCS(=O)(=O)O, the Km worked out at 820 ± 70 µM, the kcat came to 32.90 ± 1.54 s⁻¹ and the catalytic efficiency (kcat/Km) came to 40100 M⁻¹ s⁻¹.

B1: C. sinensis TK D1 (CsTK D1) (Clonorchis sinensis) (protein)
chain: MQVEPLKSLQQKIVNDEANRSFTKKHLTNRIVDLYADKKTSFGGSLAQCVSHNARNPRCILPRACDLDAYEAFREFFDAVIIDYHKVKGDKITHPKSDFGDLKSLNFKDLNADGNMVVSTRVRLGRTVAGYGFCPTISNEQRLELEKKISTALKDLSGEFKGTYYPLTGMKEEDRKKLVEKHFLFRDDDSVLRDAGGYIDWPNGRGIFINEKENFLVWVNEEDHIRVISMQKGGDLIAVYKRLANAISELGKSLTFATNDRFGFITFCPSNLGTTLRASVHARVPYLSALPNFEQICEKYNIQARGTHGEHTASVGGVYDLSNKRRLGLTEIEAVTEMYNGVQALLDLEKQLAAYNKDAP
notes: truncated N-terminal domain D1 (360 residues of the 717-residue two-domain protein, 40,573 Da); MBP fusion (pMAL-c2), E. coli TB1, amylose resin; about 80 kDa with MBP
As for B1, in the data set “purified protein [1]”, the Km amounted to 350 ± 10 µM, the kcat came to 22.59 ± 0.15 s⁻¹ and the catalytic efficiency (kcat/Km) stood at 54500 M⁻¹ s⁻¹. For the same molecule, in the data set “purified protein [2]”, the Km came to 460 ± 120 µM and the kcat stood at 22.59 ± 0.15 s⁻¹.

B2: C. sinensis TK D2 (CsTK D2) (Clonorchis sinensis) (protein)
chain: AGVMPVEPLTYLSHLLEAADPVKNYTRKHLTPEIIKKYDGVRTTHGATLAHMVRNGAYNPHSICPRTGEAECYTKFVDYLDAVILDYHGVSDPAFKHPPPTFGDLNNLPFGDVDPEGKFVVSTRVRVGRSVDGFLFSTIMSKQDRLDLETKVSTALKSLTGDHAGSYYPLANMSEATRKQLVEDHFLFKNDDPVLRDAGGYRDWPHGRGIFHNANKTFLVWLCEEDHMRIISMQKGGDLAAVYKRLIQGIQAIEKTLPFAHSDKYGYITCCPSNLGTTMRASVLLKIPKLSAQKAKLDEVCAKYRLQARGLHGEHTESPEGIHDISNKRRLGLTELEAAKEMADGVAQMIAIEKSLP
notes: truncated C-terminal domain D2 (357 residues of the 717-residue two-domain protein, 39,719 Da); MBP fusion (pMAL-c2), E. coli TB1, amylose resin; about 80 kDa with MBP
Turning to B2, in “purified protein [1]”, the Km stood at 480 ± 50 µM, the kcat amounted to 4.50 ± 0.11 s⁻¹ and the kcat/Km turned out to be 9380 M⁻¹ s⁻¹. Further, in the data set “purified protein [2]”, the Km was 750 ± 130 µM and the kcat worked out at 4.50 ± 0.11 s⁻¹.

B3: C. sinensis TK whole (CsTK D1D2) (Clonorchis sinensis) (protein)
chain: MQVEPLKSLQQKIVNDEANRSFTKKHLTNRIVDLYADKKTSFGGSLAQCVSHNARNPRCILPRACDLDAYEAFREFFDAVIIDYHKVKGDKITHPKSDFGDLKSLNFKDLNADGNMVVSTRVRLGRTVAGYGFCPTISNEQRLELEKKISTALKDLSGEFKGTYYPLTGMKEEDRKKLVEKHFLFRDDDSVLRDAGGYIDWPNGRGIFINEKENFLVWVNEEDHIRVISMQKGGDLIAVYKRLANAISELGKSLTFATNDRFGFITFCPSNLGTTLRASVHARVPYLSALPNFEQICEKYNIQARGTHGEHTASVGGVYDLSNKRRLGLTEIEAVTEMYNGVQALLDLEKQLAAYNKDAPAGVMPVEPLTYLSHLLEAADPVKNYTRKHLTPEIIKKYDGVRTTHGATLAHMVRNGAYNPHSICPRTGEAECYTKFVDYLDAVILDYHGVSDPAFKHPPPTFGDLNNLPFGDVDPEGKFVVSTRVRVGRSVDGFLFSTIMSKQDRLDLETKVSTALKSLTGDHAGSYYPLANMSEATRKQLVEDHFLFKNDDPVLRDAGGYRDWPHGRGIFHNANKTFLVWLCEEDHMRIISMQKGGDLAAVYKRLIQGIQAIEKTLPFAHSDKYGYITCCPSNLGTTMRASVLLKIPKLSAQKAKLDEVCAKYRLQARGLHGEHTESPEGIHDISNKRRLGLTELEAAKEMADGVAQMIAIEKSLP
notes: full-length contiguous two-domain enzyme, 717 residues, 80,274 Da; MBP fusion (pMAL-c2), E. coli TB1, amylose resin; 120 kDa with MBP
With B3, in the data set “purified protein [1]”, the Michaelis constant (Km) is 490 ± 20 µM, the turnover number (kcat) amounted to 17.78 ± 0.98 s⁻¹ and the kcat/Km is 36300 M⁻¹ s⁻¹. For the same molecule, in the data set “purified protein [2]”, the Km turned out to be 780 ± 70 µM and the kcat turned out to be 17.78 ± 0.98 s⁻¹.

A word on the Km: it is the substrate concentration at which the rate is half of its maximum. For orientation: kcat means the number of substrate molecules converted per active site and unit of time at saturation. The term kcat/Km denotes the turnover number divided by the Michaelis constant.
